Measured values from publication PMC5570508 (2017).

Experiments:
[1] = target: α17 Q1717A; assay: FP
[2] = target: α17 Y1713A; assay: FP
[3] = target: α17 Q1720A; assay: FP
[4] = target: α17 F1716A; assay: FP
[5] = target: α17 L1709A; assay: FP
[6] = target: α17 F1718A; assay: FP
[7] = target: α17 D1723K; assay: FP
[8] = target: α17 D1722K; assay: FP
[9] = target: PfEMP1 ATS-Core of variant PFF0845c (P. falciparum); assay: NMR; 50 mM NaCl, 25°C

Binder | Kd [1] [µM] | Kd [2] [µM] | Kd [3] [µM] | Kd [4] [µM] | Kd [5] [µM] | Kd [6] [µM] | Kd [7] [µM] | Kd [8] [µM] | Kd [9] [µM]
PfEMP1 ATS of variant PFF0845c, fluorescently labeled (H159C) (domain or fragment, fluorescein (5-FAM; fluorescein-5-maleimide) on the introduced cysteine C159) KKKTKSTIDLLRVINIPKGDYGIPTMKSKNRYVPYKSGQYNGKKYIYMEGDESDDYTYIGDISSSDITSSESEYEDIDINNIYPYKSPKYKTLIDVVLEPSKRDTFNTQSDIPSDTSTNKFTDNEWNQLKQDFISNISQNSQMDLPKNNISGNIQMDTCPHVNILDDSMQEKPFITSIHDRDLHNGEEVTYNINLDDHKNMNFSTNHDNIPPKNDQNDLYTGIDLINDSISGNHNVNIYDELLKRKENELFGTNHTKHTTTNIVAKQTHNDPIVNQINLFHKWLDRHRNMCEQWDKNKKEELLDKLNEEWNKENKNNSNVTDTNGENNITRVLNSDVSIQIDMNSKPI | 28 | 63 | 41 | 300 | 140 | 63 | 35 | 60 | 
spectrin α chain domain 17 (domain or fragment) AHHEKLKEAYALFQFFQDLDDEESWIEEKLIRVSSQDYGRDLQGVQNLLKKHKRLEGELVAHEPAIQNVLDMAEKLKDKAAVGQEEIQLRLAQFVEHWEKLKELAKARGLKLEESLEYLQFMQNA |  |  |  |  |  |  |  |  | 350
